Here are results for three proteins from FireProtDB (doi:10.1021/bi036049+).

“And” between values parts separate entries of the source, which are not always exact repeats. Equal values may be shown once.

The conditions of the series: Thermal, CD, whole UniProt chain shown.

B1: Frataxin, mitochondrial wild type, Q16595 (protein)
chain: MWTLGRRAVAGLLASPSPAQAQTLTRVPRPAELAPLCGRRGLRTDIDATCTPRRASSNQRGLNQIWNVKKQSVYLMNLRKSGTLGHPGSLDETTYERLAEETLDSLAEFFEDLADKPYTFEDYDVSFGSGVLTVKLGGDLGTYVINKQTPNKQIWLSSPSSGPKRYDWTGKNWVYSHDGVSLHELLAAELTKALKTKLDLSSLAYSGKDA
By Tm is commonly meant the temperature at the midpoint of the melting transition. Consider B1, for which the Tm (Homo sapiens, pH 6, phosphate 150 mM, reversible: yes (>95%)) amounted to 64.9 °C; the Tm (Homo sapiens, pH 7, Hepes 10 mM, CaCl2 1 mM, reversible: yes (>95%)) was 65.9 °C; the Tm (Homo sapiens, pH 7, Hepes 10 mM, NaCl 150 mM, reversible: yes (>95%)) stood at 65 °C; the Tm (Homo sapiens, pH 7, Hepes 10 mM, reversible: yes (88%)) worked out at 68.6 °C; the Tm (Homo sapiens, pH 7, phosphate 20 mM, reversible: yes (>95%)) came to 60 °C; the Tm (Homo sapiens, pH 7, phosphate 150 mM, reversible: yes (>95%)) stood at 65.7 °C.

B2: Frataxin homolog, mitochondrial wild type, Q07540 (protein)
chain: MIKRSLASLVRVSSVMGRRYMIAAAGGERARFCPAVTNKKNHTVNTFQKRFVESSTDGQVVPQEVLNLPLEKYHEEADDYLDHLLDSLEELSEAHPDCIPDVELSHGVMTLEIPAFGTYVINKQPPNKQIWLASPLSGPNRFDLLNGEWVSLRNGTKLTDILTEEVEKAISKSQ
Turning to B2, the midpoint of thermal melting (Tm) by setting is: (Saccharomyces cerevisiae (strain ATCC 204508 / S288c), pH 6, phosphate 20 mM, reversible: yes (>95%)) 39.9 °C; (Saccharomyces cerevisiae (strain ATCC 204508 / S288c), pH 6, phosphate 150 mM, reversible: yes (>95%)) 49 °C; (Saccharomyces cerevisiae (strain ATCC 204508 / S288c), pH 7, Hepes 10 mM, CaCl2 1 mM, reversible: yes (>95%)) 51.1 °C; (Saccharomyces cerevisiae (strain ATCC 204508 / S288c), pH 7, Hepes 10 mM, CaCl2 150 mM, reversible: yes (>95%)) 52.9 °C; (Saccharomyces cerevisiae (strain ATCC 204508 / S288c), pH 7, Hepes 10 mM, NaCl 150 mM, reversible: yes (>95%)) 44.6 °C; (Saccharomyces cerevisiae (strain ATCC 204508 / S288c), pH 7, Hepes 10 mM, NaF 150 mM, reversible: yes (>95%)) 44.8 °C. Moreover, the melting temperature (Tm) is 48.6 °C and 53.6 °C (Saccharomyces cerevisiae (strain ATCC 204508 / S288c), pH 7, phosphate 150 mM, reversible: yes (>95%)); 46.9 °C (Saccharomyces cerevisiae (strain ATCC 204508 / S288c), pH 7.2, Hepes 10 mM, NaF 150 mM, reversible: yes (>95%)); 44.8 °C (Saccharomyces cerevisiae (strain ATCC 204508 / S288c), pH 7.2, Hepes 10 mM, reversible: No); 42.3 °C (Saccharomyces cerevisiae (strain ATCC 204508 / S288c), pH 7.2, Hepes 10 mM, reversible: yes (47%)); 37.9 °C (Saccharomyces cerevisiae (strain ATCC 204508 / S288c), pH 7.2, Hepes 10 mM, reversible: yes (86%)); 35.5 °C (Saccharomyces cerevisiae (strain ATCC 204508 / S288c), pH 7.4, Hepes 10 mM, reversible: yes (>95%)). For the same protein, the melting temperature (Tm) (Saccharomyces cerevisiae (strain ATCC 204508 / S288c), pH 8, phosphate 150 mM, reversible: yes (>95%)) amounted to 45.9 °C.

B3: Iron-sulfur cluster assembly protein CyaY wild type, P27838 (protein)
chain: MNDSEFHRLADQLWLTIEERLDDWDGDSDIDCEINGGVLTITFENGSKIIINRQEPLHQVWLATKQGGYHFDLKGDEWICDRSGETFWDLLEQAATQQAGETVSFR
As to B3, the Tm by setting is: (Escherichia coli (strain K12), pH 6, phosphate 20 mM, reversible: yes (>95%)) 53.5 °C; (Escherichia coli (strain K12), pH 7, Hepes 10 mM, CaCl2 1 mM, reversible: yes (>95%)) 62.7 °C; (Escherichia coli (strain K12), pH 7, Hepes 10 mM, reversible: yes (86%)) 61.2 °C; (Escherichia coli (strain K12), pH 7, Hepes 10 mM, reversible: yes (>95%)) 50.4 °C; (Escherichia coli (strain K12), pH 7, phosphate 20 mM, reversible: yes (>95%)) 53.8 °C; (Escherichia coli (strain K12), pH 7.5, Hepes 10 mM, reversible: yes (86%)) 60.5 °C. For the same protein, the Tm (Escherichia coli (strain K12), pH 7.5, Hepes 10 mM, reversible: yes (>95%)) is 54.8 °C and 58.3 °C; the Tm (Escherichia coli (strain K12), pH 8, phosphate 20 mM, reversible: yes (>95%)) worked out at 53.8 °C; the Tm (Escherichia coli (strain K12), pH 8, phosphate 200 mM, reversible: yes (>95%)) was 45.8 °C.
